# T1: P-selectin glycoprotein ligand 1 (PSGL-1) expressed by cells (naive human T cells, HL-60 cells, PBMCs) (human, UniProt Q14242 42-412)
# T1 construct: also called SELPLG; CD162
# T1 sequence: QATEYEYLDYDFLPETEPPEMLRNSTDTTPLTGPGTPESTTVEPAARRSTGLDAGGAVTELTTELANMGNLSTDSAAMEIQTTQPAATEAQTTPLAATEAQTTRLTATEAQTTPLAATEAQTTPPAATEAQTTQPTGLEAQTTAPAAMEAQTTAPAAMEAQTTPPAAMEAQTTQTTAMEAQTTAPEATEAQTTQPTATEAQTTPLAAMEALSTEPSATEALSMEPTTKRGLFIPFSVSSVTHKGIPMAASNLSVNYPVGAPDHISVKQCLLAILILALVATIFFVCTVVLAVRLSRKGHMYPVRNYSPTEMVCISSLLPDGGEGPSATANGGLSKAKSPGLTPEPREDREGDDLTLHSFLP
# B1: VISTA-Fc fusion protein (Fc fusion)
# chain: FKVATPYSLYVCPEGQNVTLTCRLLGPVDKGHDVTFYKTWYRSSRGEVQTCSERRPIRNLTFQDLHLHHGGHQAANTSHDLAQRHGLESASDHHGNFSITMRNLTLLDSGLYCCLVVEIRHHHSEHRVHGAMELQVQTGKDAPSNCVVYPSSSQDSENIRSVECPPCPAPPVAGPSVFLFPPKPKDTLMISRTPEVTCVVVDVSHEDPEVKFNWYVDGVEVHNAKTKPREEQYNSTYRVVSVLTVLHQDWLNGKEYKCKVSNKGLPSSIEKTISKAKGQPREPQVYTLPPSREEMTKNQVSLTCLVKGFYPSDIAVEWESNGQPENNYKTTPPVLDSDGSFFLYSKLTVDKSRWQQGNVFSCSVMHEALHNHYTQKSLSLSPGK
# Target: T1, P-selectin glycoprotein ligand 1 …
# Assay: CAPTIREC/TRICEPS ligand-receptor capture on naive human T cells, LC-MS/MS; enrichment against the anti-CD28 antibody control
# Experimental: An overview of the […]™ procedure is outlined in FIG. 1. Briefly, the VISTA-Fc fusion protein and the anti-CD28 antibody were separately coupled with TRICEPS™ Naïve human T cells were isolated from commercially available primary human T cells. The surface glycoproteins of the naïve T cells were selectively oxidized. Ligand binding and receptor coupling to the cell surface of the oxidized naïve T cells was performed. The reacted T cells were then lysed and the resulting lysate was affinity purified for the ligand-receptor protein complexes. The purified proteins where then cleaved by trypsin digestion, thereby releasing receptor peptides. The resulting receptor peptides were analyzed by liquid chromatography-tandem mass spectrometry (LC-MS/MS). […]
# The resulting receptor peptides were analyzed by LC-MS/MS on a Thermo LTQ Orbitrap XL spectrometer fitted with an electrospray ion source. The samples were measured in data dependent acquisition mode in a 120 min gradient using a 10 cm C18 packed column. Six individual samples in the […]™ dataset were analyzed with a statistical ANOVA model. […]
# Peptide identifications were filtered to an FDR of <=1% and quantified using an MS1-based label-free approach. For the MS1 quantification, the nonlinear DYNAMICS Progenesis QI for proteomics software was used, set to consider all unique peptides. […]
binder,measurement,value
B1,Log2 FC,2.33 log2 fold change
